{"source": "paper doi:10.1101/2021.06.09.447781", "about": "(bioRxiv, 2021)", "key": {"cryo-EM structure [1]": {"biological_target": "the molecule itself", "assay": "cryo-EM structure"}, "negative-stain EM": {"biological_target": "the molecule itself", "assay": "negative-stain EM"}, "cryo-EM structure [2]": {"biological_target": "the molecule itself", "assay": "cryo-EM structure", "remark": "listed apart in the source"}}, "data": [{"protein": "B. subtilis ClpCDWB (E280A/E618A), catalytically inactive mutant (enzyme, UniProt P37571 1-810, looked up) MMFGRFTERAQKVLALAQEEALRLGHNNIGTEHILLGLVREGEGIAAKALQALGLGSEKIQKEVESLIGRGQEMSQTIHYTPRAKKVIELSMDEARKLGHSYVGTEHILLGLIREGEGVAARVLNNLGVSLNKARQQVLQLLGSNETGSSAAGTNSNANTPTLDSLARDLTAIAKEDSLDPVIGRSKEIQRVIEVLSRRTKNNPVLIGEPGVGKTAIAEGLAQQIINNEVPEILRDKRVMTLDMGTVVAGTKYRGEFEDRLKKVMDEIRQAGNIILFIDALHTLIGAGGAEGAIDASNILKPSLARGELQCIGATTLDEYRKYIEKDAALERRFQPIQVDQPSVDESIQILQGLRDRYEAHHRVSITDDAIEAAVKLSDRYISDRFLPDKAIDLIDEAGSKVRLRSFTTPPNLKELEQKLDEVRKEKDAAVQSQEFEKAASLRDTEQRLREQVEDTKKSWKEKQGQENSEVTVDDIAMVVSSWTGVPVSKIAQTETDKLLNMENILHSRVIGQDEAVVAVAKAVRRARAGLKDPKRPIGSFIFLGPTGVGKTELARALAESIFGDEESMIRIDMSEYMEKHSTSRLVGSPPGYVGYDEGGQLTEKVRRKPYSVVLLDAIEKAHPDVFNILLQVLEDGRLTDSKGRTVDFRNTILIMTSNVGASELKRNKYVGFNVQDETQNHKDMKDKVMGELKRAFRPEFINRIDEIIVFHSLEKKHLTEIVSLMSDQLTKRLKEQDLSIELTDAAKAKVAEEGVDLEYGARPLRRAIQKHVEDRLSEELLRGNIHKGQHIVLDVEDGEFVVKTTAKTN", "values": [{"measurement": "stoichiometry N", "setting": "cryo-EM structure [1]", "result": 6}, {"measurement": "stoichiometry N", "setting": "negative-stain EM", "result": 10}, {"measurement": "stoichiometry N", "setting": "cryo-EM structure [2]", "result": 24}]}]}
